# Laboratory results from publication PMC9610346.
# Experiments:
# [1] = molecular target: gp145 SOSIP construct of the Env spike protein from the HIV-1 BG505 clade A strain, nanodisc-embedded trimer (HIV-1 strain BG505 (clade A)); assay: cryo-EM structure
# [2] = molecular target: gp145 SOSIP construct of the Env spike protein from the HIV-1 BG505 clade A strain, nanodisc-embedded trimer (HIV-1 strain BG505 (clade A)); assay: negative-stain EM
substance,measurement,setting,value
"gp145 SOSIP construct of the Env spike protein from the HIV-1 BG505 clade A strain, nanodisc-embedded trimer (complex)",stoichiometry N,[1],3
same,stoichiometry N,[2],3
